B1: NAC019pro-G1 (dsDNA)
DNA 1: ATCACGACGATCTAACTGACACACGTGTCAGAATTCAAAAGTGTTTATAGATAAACACAA
DNA 2: TTGTGTTTATCTATAAACACTTTTGAATTCTGACACGTGTGTCAGTTAGATCGTCGTGAT
B2: NAC019pro-G2 (dsDNA)
DNA 1: CATTTCAGAAAACCCGTCAACAAAAAACACGTGAAATAAAATATCTCTTCCTTTACCAGT
DNA 2: ACTGGTAAAGGAAGAGATATTTTATTTCACGTGTTTTTTGTTGACGGGTTTTCTGAAATG
B3: IAA29pro-G (dsDNA)
DNA 1: GAGTAGTCACGCACGCACGACTCCGTTCACGTGACATTCACGTTGATATTTCCCCCTCTA
DNA 2: TAGAGGGGGAAATATCAACGTGAATGTCACGTGAACGGAGTCGTGCGTGCGTGACTACTC
B4: NAC019pro-G34 (dsDNA)
DNA 1: TTGCGCCTAACTTCTACGATAGACACGTGGACACGTGTCGTCATGATGTAGTTTTGTCCG
DNA 2: CGGACAAAACTACATCATGACGACACGTGTCCACGTGTCTATCGTAGAAGTTAGGCGCAA
B5: IAA29pro-p (dsDNA)
DNA 1: GATGTTGGATGTCTAAATTCGTTGAATCATGTGTCTCTTGACGAAATATGCATCTTCTTA
DNA 2: TAAGAAGATGCATATTTCGTCAAGAGACACATGATTCAACGAATTTAGACATCCAACATC

The binders below were run against T1, GST-PIF4 (Arabidopsis thaliana, UniProt Q8W2F3 1-430) (assay: EMSA).
T1 sequence: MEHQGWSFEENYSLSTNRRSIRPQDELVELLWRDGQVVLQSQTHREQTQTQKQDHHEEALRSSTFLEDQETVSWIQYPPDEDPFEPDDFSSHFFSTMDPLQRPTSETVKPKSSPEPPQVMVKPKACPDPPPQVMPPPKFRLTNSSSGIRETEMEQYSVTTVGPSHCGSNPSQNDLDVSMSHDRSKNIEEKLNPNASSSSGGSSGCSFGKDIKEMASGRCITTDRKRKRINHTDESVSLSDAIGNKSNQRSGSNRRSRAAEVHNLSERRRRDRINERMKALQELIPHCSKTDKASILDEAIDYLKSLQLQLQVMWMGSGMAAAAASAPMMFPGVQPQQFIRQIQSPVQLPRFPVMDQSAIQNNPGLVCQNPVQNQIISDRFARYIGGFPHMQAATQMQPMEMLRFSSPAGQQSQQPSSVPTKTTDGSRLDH

| Binder | binding result |
| --- | --- |
| B1 | binds |
| B2 | no binding |
| B3 | binds |
| B4 | binds |
| B5 | no binding |
